Publication PMC6326806

Legend:
Plk1 [1] = target: Plk1 (UniProt P53350); experiment: GST-Plk1 pull-down from cell lysate; settings: reference: wild type; sites T476
Plk1 [2] = target: Plk1 (UniProt P53350); experiment: GFP-trap co-IP of Myc-Plk1; settings: reference: GFP-B-Myb wild type; sites T476

Substance	binding against the reference (Plk1 [1])	binding against the reference (Plk1 [2])
B-Myb (from UniProt P10244) T476A	lost	–
B-Myb (from UniProt P10244) GFP-B-Myb T476A	–	lost
